{
  "source": "patent US20220017622A1",
  "about": "(Pfizer, published 2022)",
  "key": {"[1]": {"biological_target": "T1, human B7-H4 on cells (human, UniProt Q7Z7D3 25-282)", "T1 construct": "whole, on cells; Tumour cell lines with endogenous B7-H4 or HEK293 transfected with human B7-H4", "T1 sequence (looked up)": "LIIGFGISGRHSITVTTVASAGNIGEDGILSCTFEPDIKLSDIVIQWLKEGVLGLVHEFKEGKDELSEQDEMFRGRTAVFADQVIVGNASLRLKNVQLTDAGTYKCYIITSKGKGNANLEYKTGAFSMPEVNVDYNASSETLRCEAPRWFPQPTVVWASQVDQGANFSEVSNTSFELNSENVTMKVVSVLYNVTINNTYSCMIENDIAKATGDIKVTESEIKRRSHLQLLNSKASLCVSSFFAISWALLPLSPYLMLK", "assay": "flow cytometry on MX-1 cells, 37 C"}, "[2]": {"biological_target": "T1, human B7-H4 on cells", "assay": "cell-based or functional assay"}, "[3]": {"biological_target": "T2, human CD3 on primary human T cells (human, UniProt P07766 23-207; P04234 22-171)", "T2 construct": "whole, on cells; On cells the whole CD3/TCR complex is present", "T2 sequence (P07766 23-207, chain 1 of 2)": "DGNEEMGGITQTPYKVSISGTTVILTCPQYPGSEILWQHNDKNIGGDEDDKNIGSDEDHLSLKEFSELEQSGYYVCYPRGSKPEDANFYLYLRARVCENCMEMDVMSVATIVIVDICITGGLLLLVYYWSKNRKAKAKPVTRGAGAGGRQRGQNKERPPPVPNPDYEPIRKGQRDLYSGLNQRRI", "T2 sequence (P04234 22-171, chain 2 of 2)": "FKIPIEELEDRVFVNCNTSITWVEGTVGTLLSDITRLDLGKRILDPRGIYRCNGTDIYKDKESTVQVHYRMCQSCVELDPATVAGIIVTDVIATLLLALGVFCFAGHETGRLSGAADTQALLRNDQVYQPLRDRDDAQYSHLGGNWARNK", "assay": "flow cytometry on primary human T cells, 37 C"}},
  "data": [
    {"binder": "B7-H4xCD3 bispecific antibody 1169 (bispecific antibody, IgG2, Chains 1-2: B7-H4 arm; chains 3-4: CD3 arm; IgG2) heavy 1: EVQLLESGGGLVQPGGSLRLSCAASGFTFSSYAMSWVRQAPGKGLEWVSAISGGGGSTYYADSVKGRFTISRDNSKNTLYLQMNSLRAEDTAVYYCARDIQWYGESTLFDYWGQGTLVTVSSASTKGPSVFPLAPCSRSTSESTAALGCLVKDYFPEPVTVSWNSGALTSGVHTFPAVLQSSGLYSLSSVVTVPSSNFGTQTYTCNVDHKPSNTKVDKTVERKCEVECPECPAPPVAGPSVFLFPPKPKDTLMISRTPEVTCVVVAVSHEDPEVQFNWYVDGVEVHNAKTKPREEQFNSTFRVVSVLTVVHQDWLNGKEYKCKVSNKGLPSSIEKTISKTKGQPREPQVYTLPPSREEMTKNQVSLTCEVKGFYPSDIAVEWESNGQPENNYKTTPPMLDSDGSFFLYSKLTVDKSRWQQGNVFSCSVMHEALHNHYTQKSLSLSPG light 1: DIQMTQSPSSLSASVGDRVTITCRASQSTRSWLAWHQQKPGKAPKLLIYKASSLESGVPSRFSGSGSGTDFTLTISSLQPEDFATYYCQQYGSYSRTFGQGTKVEIKRTVAAPSVFIFPPSDEQLKSGTASVVCLLNNFYPREAKVQWKVDNALQSGNSQESVTEQDSKDSTYSLSSTLTLSKADYEKHKVYACEVTHQGLSSPVTKSFNRGEC heavy 2: EVQLVESGGGLVQPGGSLRLSCAASGFTFSDYYMTWVRQAPGKGLEWVAFIRNQARGYTSDHNPSVKGRFTISRDNAKNSLYLQMNSLRAEDTAVYYCARDRPSYYVLDYWGQGTTVTVSSASTKGPSVFPLAPCSRSTSESTAALGCLVKDYFPEPVTVSWNSGALTSGVHTFPAVLQSSGLYSLSSVVTVPSSNFGTQTYTCNVDHKPSNTKVDKTVERKCRVRCPRCPAPPVAGPSVFLFPPKPKDTLMISRTPEVTCVVVAVSHEDPEVQFNWYVDGVEVHNAKTKPREEQFNSTFRVVSVLTVVHQDWLNGKEYKCKVSNKGLPSSIEKTISKTKGQPREPQVYTLPPSREEMTKNQVSLTCLVKGFYPSDIAVEWESNGQPENNYKTTPPMLDSDGSFFLYSRLTVDKSRWQQGNVFSCSVMHEALHNHYTQKSLSLSPGK light 2: DIQMTQSPSSLSASVGDRVTITCTSSQSLFNVRSQKNYLAWYQQKPGKAPKLLIYWASTRESGVPSRFSGSGSGTDFTLTISSLQPEDFATYYCKQSYDLFTFGGGTKVEIKRTVAAPSVFIFPPSDEQLKSGTASVVCLLNNFYPREAKVQWKVDNALQSGNSQESVTEQDSKDSTYSLSSTLTLSKADYEKHKVYACEVTHQGLSSPVTKSFNRGEC", "values": [
      {"measurement": "EC50", "setting": "[1]", "result": 10, "unit": "nM"},
      {"measurement": "T cell mediated tumor cell killing EC50, HCC1954-Luc", "setting": "[2]", "result": 975, "unit": "nM"},
      {"measurement": "T cell mediated tumor cell killing, OVCAR3-Luc", "setting": "[2]", "result": 190},
      {"measurement": "T cell mediated tumor cell killing, T47D", "setting": "[2]", "result": 818},
      {"measurement": "EC50", "setting": "[3]", "result": 5.22, "unit": "nM"}
    ]},
    {"binder": "B7-H4xCD3 bispecific antibody 1133 (bispecific antibody, IgG2, Chains 1-2: B7-H4 arm; chains 3-4: CD3 arm; IgG2) heavy 1: EVQLVESGGGLVQPGGSLRLSCAVSGGSFSGYYWNWIRQPPGKGLEWIGEINHSGSATYNPSLKSRVTISVDTAKNSLYLQMNSLRAEDTAVYYCARGLYNWNVDHWGQGTLVTVSSASTKGPSVFPLAPCSRSTSESTAALGCLVKDYFPEPVTVSWNSGALTSGVHTFPAVLQSSGLYSLSSVVTVPSSNFGTQTYTCNVDHKPSNTKVDKTVERKCEVECPECPAPPVAGPSVFLFPPKPKDTLMISRTPEVTCVVVAVSHEDPEVQFNWYVDGVEVHNAKTKPREEQFNSTFRVVSVLTVVHQDWLNGKEYKCKVSNKGLPSSIEKTISKTKGQPREPQVYTLPPSREEMTKNQVSLTCEVKGFYPSDIAVEWESNGQPENNYKTTPPMLDSDGSFFLYSKLTVDKSRWQQGNVFSCSVMHEALHNHYTQKSLSLSPG light 1: DIQMTQSPSSLSASVGDRVTITCRASQGIRNDLGWYQQKPGKAPKRLIYAASSLQSGVPSRFSGSGSGTDFTLTISSLQPEDFATYYCLQHNAYPRTFGGGTKVEIKRTVAAPSVFIFPPSDEQLKSGTASVVCLLNNFYPREAKVQWKVDNALQSGNSQESVTEQDSKDSTYSLSSTLTLSKADYEKHKVYACEVTHQGLSSPVTKSFNRGEC heavy 2: EVQLVESGGGLVQPGGSLRLSCAASGFTFSDYYMTWVRQAPGKGLEWVAFIRNQARGYTSDHNPSVKGRFTISRDNAKNSLYLQMNSLRAEDTAVYYCARDRPSYYVLDYWGQGTTVTVSSASTKGPSVFPLAPCSRSTSESTAALGCLVKDYFPEPVTVSWNSGALTSGVHTFPAVLQSSGLYSLSSVVTVPSSNFGTQTYTCNVDHKPSNTKVDKTVERKCRVRCPRCPAPPVAGPSVFLFPPKPKDTLMISRTPEVTCVVVAVSHEDPEVQFNWYVDGVEVHNAKTKPREEQFNSTFRVVSVLTVVHQDWLNGKEYKCKVSNKGLPSSIEKTISKTKGQPREPQVYTLPPSREEMTKNQVSLTCLVKGFYPSDIAVEWESNGQPENNYKTTPPMLDSDGSFFLYSRLTVDKSRWQQGNVFSCSVMHEALHNHYTQKSLSLSPGK light 2: DIQMTQSPSSLSASVGDRVTITCTSSQSLFNVRSQKNYLAWYQQKPGKAPKLLIYWASTRESGVPSRFSGSGSGTDFTLTISSLQPEDFATYYCKQSYDLFTFGGGTKVEIKRTVAAPSVFIFPPSDEQLKSGTASVVCLLNNFYPREAKVQWKVDNALQSGNSQESVTEQDSKDSTYSLSSTLTLSKADYEKHKVYACEVTHQGLSSPVTKSFNRGEC", "values": [
      {"measurement": "EC50", "setting": "[1]", "result": 1.47, "unit": "nM"},
      {"measurement": "T cell mediated tumor cell killing EC50, HCC1954-Luc", "setting": "[2]", "result": 790, "unit": "nM"},
      {"measurement": "T cell mediated tumor cell killing, T47D", "setting": "[2]", "result": 2810},
      {"measurement": "EC50", "setting": "[3]", "result": 5.73, "unit": "nM"}
    ]},
    {"binder": "B7-H4xCD3 bispecific antibody 1170 (bispecific antibody, IgG2, Chains 1-2: B7-H4 arm; chains 3-4: CD3 arm; IgG2) heavy 1: EVQLLESGGGLVQPGGSLRLSCAASGFTFSSYAMSWVRQAPGKGLEWVSAISGGGGSTYYADSVKGRFTISRDNSKNTLYLQMNSLRAEDTAVYYCARDIQWYGESTLFDYWGQGTLVTVSSASTKGPSVFPLAPCSRSTSESTAALGCLVKDYFPEPVTVSWNSGALTSGVHTFPAVLQSSGLYSLSSVVTVPSSNFGTQTYTCNVDHKPSNTKVDKTVERKCEVECPECPAPPVAGPSVFLFPPKPKDTLMISRTPEVTCVVVAVSHEDPEVQFNWYVDGVEVHNAKTKPREEQFNSTFRVVSVLTVVHQDWLNGKEYKCKVSNKGLPSSIEKTISKTKGQPREPQVYTLPPSREEMTKNQVSLTCEVKGFYPSDIAVEWESNGQPENNYKTTPPMLDSDGSFFLYSKLTVDKSRWQQGNVFSCSVMHEALHNHYTQKSLSLSPG light 1: DIQMTQSPSSLSASVGDRVTITCRASQSTRSWLAWLQQKPGKAPKLLIYKASSLESGVPSRFSGSGSGTDFTLTISSLQPEDFATYYCQQYGSYSRTFGQGTKVEIKRTVAAPSVFIFPPSDEQLKSGTASVVCLLNNFYPREAKVQWKVDNALQSGNSQESVTEQDSKDSTYSLSSTLTLSKADYEKHKVYACEVTHQGLSSPVTKSFNRGEC heavy 2: EVQLVESGGGLVQPGGSLRLSCAASGFTFSDYYMTWVRQAPGKGLEWVAFIRNQARGYTSDHNPSVKGRFTISRDNAKNSLYLQMNSLRAEDTAVYYCARDRPSYYVLDYWGQGTTVTVSSASTKGPSVFPLAPCSRSTSESTAALGCLVKDYFPEPVTVSWNSGALTSGVHTFPAVLQSSGLYSLSSVVTVPSSNFGTQTYTCNVDHKPSNTKVDKTVERKCRVRCPRCPAPPVAGPSVFLFPPKPKDTLMISRTPEVTCVVVAVSHEDPEVQFNWYVDGVEVHNAKTKPREEQFNSTFRVVSVLTVVHQDWLNGKEYKCKVSNKGLPSSIEKTISKTKGQPREPQVYTLPPSREEMTKNQVSLTCLVKGFYPSDIAVEWESNGQPENNYKTTPPMLDSDGSFFLYSRLTVDKSRWQQGNVFSCSVMHEALHNHYTQKSLSLSPGK light 2: DIQMTQSPSSLSASVGDRVTITCTSSQSLFNVRSQKNYLAWYQQKPGKAPKLLIYWASTRESGVPSRFSGSGSGTDFTLTISSLQPEDFATYYCKQSYDLFTFGGGTKVEIKRTVAAPSVFIFPPSDEQLKSGTASVVCLLNNFYPREAKVQWKVDNALQSGNSQESVTEQDSKDSTYSLSSTLTLSKADYEKHKVYACEVTHQGLSSPVTKSFNRGEC", "values": [
      {"measurement": "EC50", "setting": "[1]", "result": 6.88, "unit": "nM"},
      {"measurement": "T cell mediated tumor cell killing EC50, HCC1954-Luc", "setting": "[2]", "result": 595, "unit": "nM"},
      {"measurement": "T cell mediated tumor cell killing, OVCAR3-Luc", "setting": "[2]", "result": 130},
      {"measurement": "T cell mediated tumor cell killing, T47D", "setting": "[2]", "result": 444},
      {"measurement": "EC50", "setting": "[3]", "result": 5.51, "unit": "nM"}
    ]},
    {"binder": "B7-H4xCD3 bispecific antibody 1037 (bispecific antibody, IgG2, Chains 1-2: B7-H4 arm; chains 3-4: CD3 arm; IgG2) heavy 1: EVQLVESGGGLVQPGGSLRLSCAVSGGSFSGYYWNWVRQAPGKGLEWIGEINHSGSATYNPSLKSRVTISVDTAKNSLYLQMNSLRAEDTAVYYCARGLYNWNVDHWGQGTLVTVSSASTKGPSVFPLAPCSRSTSESTAALGCLVKDYFPEPVTVSWNSGALTSGVHTFPAVLQSSGLYSLSSVVTVPSSNFGTQTYTCNVDHKPSNTKVDKTVERKCEVECPECPAPPVAGPSVFLFPPKPKDTLMISRTPEVTCVVVAVSHEDPEVQFNWYVDGVEVHNAKTKPREEQFNSTFRVVSVLTVVHQDWLNGKEYKCKVSNKGLPSSIEKTISKTKGQPREPQVYTLPPSREEMTKNQVSLTCEVKGFYPSDIAVEWESNGQPENNYKTTPPMLDSDGSFFLYSKLTVDKSRWQQGNVFSCSVMHEALHNHYTQKSLSLSPG light 1: DIQMTQSPSSLSASVGDRVTITCRASQGIRNDLGWYQQKPGKAPKRLIYAASSLQSGVPSRFSGSGSGTDFTLTISSLQPEDFATYYCLQHSSYPRTFGGGTKVEIKRTVAAPSVFIFPPSDEQLKSGTASVVCLLNNFYPREAKVQWKVDNALQSGNSQESVTEQDSKDSTYSLSSTLTLSKADYEKHKVYACEVTHQGLSSPVTKSFNRGEC heavy 2: EVQLVESGGGLVQPGGSLRLSCAASGFTFSDYYMTWVRQAPGKGLEWVAFIRNQARGYTSDHNPSVKGRFTISRDNAKNSLYLQMNSLRAEDTAVYYCARDRPSYYVLDYWGQGTTVTVSSASTKGPSVFPLAPCSRSTSESTAALGCLVKDYFPEPVTVSWNSGALTSGVHTFPAVLQSSGLYSLSSVVTVPSSNFGTQTYTCNVDHKPSNTKVDKTVERKCRVRCPRCPAPPVAGPSVFLFPPKPKDTLMISRTPEVTCVVVAVSHEDPEVQFNWYVDGVEVHNAKTKPREEQFNSTFRVVSVLTVVHQDWLNGKEYKCKVSNKGLPSSIEKTISKTKGQPREPQVYTLPPSREEMTKNQVSLTCLVKGFYPSDIAVEWESNGQPENNYKTTPPMLDSDGSFFLYSRLTVDKSRWQQGNVFSCSVMHEALHNHYTQKSLSLSPGK light 2: DIQMTQSPSSLSASVGDRVTITCTSSQSLFNVRSQKNYLAWYQQKPGKAPKLLIYWASTRESGVPSRFSGSGSGTDFTLTISSLQPEDFATYYCKQSYDLFTFGGGTKVEIKRTVAAPSVFIFPPSDEQLKSGTASVVCLLNNFYPREAKVQWKVDNALQSGNSQESVTEQDSKDSTYSLSSTLTLSKADYEKHKVYACEVTHQGLSSPVTKSFNRGEC", "values": [
      {"measurement": "EC50", "setting": "[1]", "result": 3.64, "unit": "nM"},
      {"measurement": "T cell mediated tumor cell killing EC50, HCC1954-Luc", "setting": "[2]", "result": 620, "unit": "nM"},
      {"measurement": "T cell mediated tumor cell killing, T47D", "setting": "[2]", "result": 1270},
      {"measurement": "EC50", "setting": "[3]", "result": 5.78, "unit": "nM"}
    ]}
  ]
}
